Source: the supplement of paper PMC10724198
± gives the standard deviation of the averaged measurements.

Test system: Saccharomyces cerevisiae
Assay: protein stability index of tFT-peptide fusion (C-terminal peptide) (PSI (0-1 scale)); higher = more stable (slower turnover)
Settings: temperature: 30 C
Procedure: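 MPS profiling in S. cerevisiae of the yeast C-terminome library: the last 12 aa of each annotated ORF are fused to the C-terminus of a sfGFP-mCherry timer, after a GGGS linker. Cells are FACS-sorted into 8 mCherry/sfGFP bins and deep-sequenced. PSI runs from 0 (unstable) to 1 (stable); wild type and das1Δ backgrounds, two technical replicates each.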

[1] = genetic background: das1 deletion

| Sequence | protein stability index [1] | protein stability index (genetic background: wild type) |
| --- | --- | --- |
| TDELWEMLLDQA [MET12 C-terminal 12 aa] | 0.762 ± 0.039 | 0.723 ± 0.072 |
| TELRHKRTGGKH [ILV2 C-terminal 12 aa] | 0.691 ± 0.0092 | 0.7268 ± 0.002 |
| TGKDVMKGALGF [SRO7 C-terminal 12 aa] | 0.6953 ± 0.0023 | 0.667 ± 0.024 |
| TGRDMMKSAVGF [SRO77 C-terminal 12 aa] | 0.714 ± 0.015 | 0.661 ± 0.016 |
| TGTSTEAPSAAN [NCL1 C-terminal 12 aa] | 0.6661 ± 0.00092 | 0.6578 ± 0.0053 |
| THQKKIAKKKHQ [YPR015C C-terminal 12 aa] | 0.741 ± 0.053 | 0.695 ± 0.014 |
| TIITKYEMLVRT [YOL134C C-terminal 12 aa] | 0.52 ± 0.015 | 0.5399 ± 0.0028 |
| TKKSSSHHRTGK [DIG1 C-terminal 12 aa] | 0.697 ± 0.014 | 0.688 ± 0.016 |
| TLEDEALQRNSK [JNM1 C-terminal 12 aa] | 0.722 ± 0.0093 | 0.686 ± 0.017 |
| TLNVSNISHYSL [GAL80 C-terminal 12 aa] | 0.7033 ± 0.0016 | 0.704 ± 0.0075 |
| TLQSEINISVKH [ENA5 C-terminal 12 aa] | 0.671 ± 0.0081 | 0.6909 ± 0.0042 |
| TLTDLRDELRGL [NUP120 C-terminal 12 aa] | 0.678 ± 0.018 | 0.721 ± 0.024 |
| TLWNDNTSYPFL [PDR3 C-terminal 12 aa] | 0.756 ± 0.015 | 0.7571 ± 0.0029 |
| TNDSFNIVALTP [PRP19 C-terminal 12 aa] | 0.68811 ± 0.00023 | 0.654 ± 0.017 |
| TPENNHLKWLIK [UGX2 C-terminal 12 aa] | 0.716 ± 0.024 | 0.685 ± 0.035 |
| TPKPVDTDDEED [NEW1 C-terminal 12 aa] | 0.685 ± 0.023 | 0.707 ± 0.035 |
| TPLGQTLLDSRR [DAL1 C-terminal 12 aa] | 0.6757 ± 0.0015 | 0.67 ± 0.011 |
| TPQEILQRFQKQ [EAF1 C-terminal 12 aa] | 0.6812 ± 0.0053 | 0.732 ± 0.029 |
| TQSTVIATTSSV [NDL1 C-terminal 12 aa] | 0.6904 ± 0.0063 | 0.694 ± 0.027 |
| TRDAPRERSPTR [NPL3 C-terminal 12 aa] | 0.716 ± 0.016 | 0.65 ± 0.018 |
| TRFFDSKYFGCD [URK1 C-terminal 12 aa] | 0.701 ± 0.0078 | 0.73 ± 0.072 |

| Sequence | protein stability index [1] | protein stability index (genetic background: wild type) |
| --- | --- | --- |
| TRSAWDRAQRRL [LCP5 C-terminal 12 aa] | 0.697 ± 0.015 | 0.674 ± 0.013 |
| TSAGSNIFSTGQ [BBP1 C-terminal 12 aa] | 0.699 ± 0.011 | 0.752 ± 0.043 |
| TSASSNLDDSFS [YPR002C-A C-terminal 12 aa] | 0.69 ± 0.019 | 0.6996 ± 0.002 |
| TSGFCSLETSAE [YER023C-A C-terminal 12 aa] | 0.697 ± 0.0079 | 0.735 ± 0.057 |
| TSGGSIVLKGSS [YGR068W-A C-terminal 12 aa] | 0.701 ± 0.026 | 0.6688 ± 0.0037 |
| TSNDLPAECVIS [EGH1 C-terminal 12 aa] | 0.72 ± 0.0097 | 0.68843 ± 0.00034 |
| TSNNIFGSDQKY [MNN14 C-terminal 12 aa] | 0.694 ± 0.016 | 0.741 ± 0.037 |
| TSSTPKSPSSGS [SMY1 C-terminal 12 aa] | 0.691 ± 0.018 | 0.67 ± 0.014 |
| TSTLAVIPYPAF [YLR466C-B C-terminal 12 aa] | 0.7177 ± 0.0022 | 0.755 ± 0.045 |
| TTLCILFLFFTW [GOS1 C-terminal 12 aa] | 0.386 ± 0.0071 | 0.401 ± 0.014 |
| TTVPIVSKKRQK [POP3 C-terminal 12 aa] | 0.685 ± 0.033 | 0.699 ± 0.01 |
| TVNLIKSQLVRG [COQ9 C-terminal 12 aa] | 0.6064 ± 0.0011 | 0.635 ± 0.047 |
| TVRALNPFMKRV [SSD1 C-terminal 12 aa] | 0.689 ± 0.046 | 0.656 ± 0.039 |
| TYCEKYHVPSIQ [YAE1 C-terminal 12 aa] | 0.6915 ± 0.0042 | 0.677 ± 0.04 |
| TYFSKQFLKKEL [LTP1 C-terminal 12 aa] | 0.746 ± 0.017 | 0.742 ± 0.009 |
| TYRLGEWSKISV [POP1 C-terminal 12 aa] | 0.694 ± 0.011 | 0.6913 ± 0.0047 |
| VAAKIAALAGQQ [RPL5 C-terminal 12 aa] | 0.708 ± 0.026 | 0.717 ± 0.028 |
| VAQNPVLAAVIA [KAP123 C-terminal 12 aa] | 0.455 ± 0.013 | 0.466 ± 0.015 |
| VARLKDESENVW [COX16 C-terminal 12 aa] | 0.689 ± 0.018 | 0.732 ± 0.041 |
| VAVASASSSASS [VPH1 C-terminal 12 aa] | 0.683 ± 0.019 | 0.682 ± 0.032 |
| VDDIVSGVRKQE [CCT3 C-terminal 12 aa] | 0.691 ± 0.028 | 0.677 ± 0.011 |

| Sequence | protein stability index [1] | protein stability index (genetic background: wild type) |
| --- | --- | --- |
| VDDSDGDETMQI [TDA1 C-terminal 12 aa] | 0.70725 ± 0.00053 | 0.7369 ± 0.0011 |
| VEDQSIEVKKEK [YPC1 C-terminal 12 aa] | 0.684 ± 0.035 | 0.7136 ± 0.007 |
| VEFKYPEEIFHG [TPP1 C-terminal 12 aa] | 0.712 ± 0.012 | 0.6782 ± 0.0027 |
| VEGGGVQYTIVS [YDL023C C-terminal 12 aa] | 0.679 ± 0.0039 | 0.669 ± 0.0067 |
| VEVEYLLRRLEE [ARO7 C-terminal 12 aa] | 0.691 ± 0.013 | 0.6589 ± 0.0044 |
| VFKMIMFIASNE [STU1 C-terminal 12 aa] | 0.581 ± 0.0076 | 0.5559 ± 0.0028 |
| VFLIISQHSLHS [YBL113W-A C-terminal 12 aa] | 0.6652 ± 0.0044 | 0.646 ± 0.029 |
| VFTRLYSTLWSY [YDR149C C-terminal 12 aa] | 0.6867 ± 0.0054 | 0.145 ± 0.0086 |
| VIKCFTSSDMTS [NAG1 C-terminal 12 aa] | 0.701 ± 0.026 | 0.683 ± 0.053 |
| VKDFYKRLETLK [RRM3 C-terminal 12 aa] | 0.6914 ± 0.0038 | 0.7042 ± 0.0011 |
| VKNVLSKVVPPV [MTC2 C-terminal 12 aa] | 0.688 ± 0.0078 | 0.669 ± 0.04 |
| VKPSQDNVDSKD [OPI1 C-terminal 12 aa] | 0.687 ± 0.0096 | 0.668 ± 0.022 |
| VKQLEVSSGIKQ [HEM1 C-terminal 12 aa] | 0.6929 ± 0.0017 | 0.675 ± 0.043 |
| VLAILFYPAWVE [YGR160W C-terminal 12 aa] | 0.5 ± 0.0098 | 0.529 ± 0.0053 |
| VLDVGSVLDVTI [PSR2 C-terminal 12 aa] | 0.718 ± 0.035 | 0.6934 ± 0.00093 |
| VLHSIISICRIF [VPS65 C-terminal 12 aa] | 0.756 ± 0.014 | 0.641 ± 0.036 |
| VMAWTFGYALIG [EMC6 C-terminal 12 aa] | 0.654 ± 0.015 | 0.452 ± 0.014 |
| VMKAKRKFNPYT [RRP7 C-terminal 12 aa] | 0.6859 ± 0.0013 | 0.6974 ± 0.0025 |
| VMPIFIYFYTVV [CDC1 C-terminal 12 aa] | 0.38 ± 0.044 | 0.343 ± 0.0079 |
